From US20250302761A1 (INSTITUT NATIONAL DE LA SANT ET DE LA RECHERCHE M DICALE, published 2025)

Biological target: FKBP2-RFP-CD63
Assay: cell-based or functional assay

B1: FRB-NanoLuciferase-HA (other)
chain: ILWHEMWHEGLEEASRLYFGERNVKGMFEVLEPLHAMMERGPQTLKETSFNQAYGRDLMEAQEWCRKYMKSGNVKDLLQAWDLYYHVFRRISK
EV NLuc specific activity, normalized on the 'No Drug' condition: 3.5 fold | NLuc activity in Fraction 7 of the floatation assay, 'Drug' against 'No Drug': 4 fold
